These results are taken from the DeepSol protein solubility set.

This series is described as follows: soluble on expression in E. coli; label from the status in PepcDB or PDB records.
As for “ADEVAQTLAKVLTESSMPRENLLLSSFSHDVIRALYQHCEGYRLGVLSEFFTKKDGLLLDEVKAYSCNLNINWVRSRQIIKLQEAGYKVMCYTVNNPNKLKHLPQLDGIFSDHPKRFMQ”, the “soluble on expression in E. coli” value is “not soluble”.
“MDSAREVSDGRLTVEGFSVASRAFADKWKIHNQSFPPWSWVPLINRTLLVSKKEEGYLSLEKIIILSSLEEEIPEDESLNVATDCLEKEETVDHTILVPTMENEAHYYDFHIVYSASYKVPVLYFRGYCSGGEPLALDVIKKDVPSCSVSLLLESKWTFITQEEHPYLNRPWFKLHPCGTEDWIKLLSQSSSSSGCQMPIVLYLVSWFSVVGQVVGLRIPLEMLN”: the “soluble on expression in E. coli” value was “soluble”.
With “ASDHQTQAGKPQPLNPKIIIFEQENFQGHSHELSGPCPNLKETGMEKAGSVLVQAGPWVGYEQANCKGEQFVFEKGEYPRWDSWTSSRRTDSLSSLRPIKVDSQEH”, the “soluble on expression in E. coli” value was “soluble”.
The result for “MGHNMMTTQKWYEHITNVIIGNTANFNSGCPESIDYVDEKKGVPLAAMKYILMYTEAAASHAYLFEHDLKKFKQYAYVAGKLGILQSVDDEDPEPFFFPCDMLNIQDPMFLMLMSDSPQLREFLVRNIDNIANDTEAFVNRYDLNRHMIYNTLLMVEGKQLDRLKQRSEKVLAHPTPSKWLQKRLYDYRFFLAFAEQDAEAMKAALEPLFDKKTARMAAKETLSYFDFYLQPQIVTYAKIASMHGFDLGIDHEIAPRDLTVYDPLPADEYQDIFDFMKQYDLSYPYEYLQDWIDYYTFKTDKLVFGNAKRE” reads “not soluble”.
“GDYTTLTFRVSTHIEEAAPTSCPAEHPHTVAQGDYLIVAKSNRMSTGNDELGSILMRAFVNAIGELDRLPSHIILYNTGVLLAVEGTDTAETLAELNKKHGIPIIVCGTCADYYEVKDKLRIGTISNMYRIMQLQVATRHIIYP”: the “soluble on expression in E. coli” value is “not soluble”.
In the case of “MSVELWQQCVDLLRDELPSQQFNTWIRPLQVEAEGDELRVYAPNRFVLDWVNEKYLGRLLELLGERGEGQLPALSLLIGSKRSRTPRAAIVPSQTHVAPPPPVAPPPAPVQPVSAAPVVVPREELPPVTTAPSVSSDPYEPEEPSIDPLAAAMPAGAAPAVRTERNVQVEGALKHTSYLNRTFTFENFVEGKSNQLARAAAWQVADNLKHGYNPLFLYGGVGLGKTHLMHAVGNHLLKKNPNAKVVYLHSERFVADMVKALQLNAINEFKRFYRSVDALLIDDIQFFARKERSQEEFFHTFNALLEGGQQVILTSDRYPKEIEGLEERLKSRFGWGLTVAVEPPELETRVAILMKKAEQAKIELPHDAAFFIAQRIRSNVRELEGALKRVIAHSHFMGRPITIELIRESLKDLLALQDKLVSIDNIQRTVAEYYKIKISDLLSKRRSRSVARPRQVAMALSKELTNHSLPEIGVAFGGRDHTTVLHACRKIAQLRESDADIREDYKNLLRTLTT”, the “soluble on expression in E. coli” value is on record as “not soluble”.
As to “MDVLSLLRVFGRRRRGLRDLEVSEPEFGDRPEYLEEYVRRFTSETGREEPELVEKIPSSMKNAREFNVIYPVGFGIFIHAYNDPLSESGYNKYVVVEPPRPPEDLVRLIDYKIALVLSEEDAPRSSEEKKRILLAALDKVVAVTSSERIAGGNGGNGSWQYAVKRGRIVIPERYYNYLKYHFIREKVGVGPLEPFLRDPYLEDISCNGVGPVYVVHKMFRSLESSVRFETEGELDDFILKLGEKIGKPISHARPVVDATLPDGSRINIVFGSDVSLKGSNFTIRKVSKIPISVTQLIKWGTFDARIAAYMWMMLEEGMSVFICGETASGKTTSLNAISVFIRPDAKIVTIEDTAEVVLPHPNWTRELTRNTGKPETSVTMFDLLRAALRQRPNYIIVGEIRGAEGNIAFQAMQTGHPVMATFHAANLSRLLQRLTNHPINVPKTNIDSLNIAWFQSAVHVKGFPARRVLEIDEIIGYDPSSGAIAAVPSFTWDPVRDKFIFSGRGASYLLEEKIATMKGIPRRELSIIYEELELRRRFLQTLVDKNILDYFDVYKAIVRAYNIGVEEALKRLERDELLS”, the “soluble on expression in E. coli” value is “soluble”.
The entry for “MGSDKIHHHHHHGNDDFPAEEPKVPLEITSAFVTGDVQTRAVTPELLTSGSIGVFLEGRSGTGYDKKDNIQYDYNVGWKPKTETIYLGGEDADVCAYKKTTKLDLSAKEAVPLVSQIYDAEIDLVYATNQTVNGTSAGKSVEFTMGHAYSQIEFVFSREDYPNTCKVTEITVENANIIKTATLNLATGGYTPVTVEKVSYWTNVAKHEDGIAVPESGTVKSNVLMIPCTLANAGGTGVTLELKVDGKLMTVPIAHDKLGALTAGVIHQISLKLKGTALEISVKDTPWDNQPVDGEYNPEP” is “not soluble”; for “MGSDKIHHHHHHMFAGAPLSMLLAMPHRPYRDEADLTLLLRWLSDHAPTTFMHPGDLVWWLYQNTQVDPRQALELLFDGEAGGNELQGFGYCDGSWSVLQGLPDLPAHVWDEMVAAAATRAGGKLTVQPHEWDTPQLAALKRAGFELTDNRMVRLVREVQPCDQEAVALPAGFHFADMSGSEVSPEDRVKVHQDVWHPSKVTLEAYGRLQAAPLYRPDLDVMVVAPSGEIAAYALGWFDPGSRTGLMEPVGTRAAFRRQGLGKGLIREVTHRFAALGAQKVTIGSYEKNVAAVALYTSAGYAARGFWVDWETETAAMKEGQDSA” it is “not soluble”.
Turning to “MNAVAPLIPCIVSGGSGTRLWPVSRESMPKPFMRLADDQSLLQKTFLRIAGLPDVARLLTVTNRDLLFRTLDDYRAVNRSGLAQDLLLEPVGRNTAPAIAAAALHVQEHFGDQAQLLILPADHLIRDEQAFAAAVAEARGLAAQGYLVTFGITPERAETGFGYIEQGAPLGNGFRVARFVEKPDQATAQSYLDSGKYLWNAGMFCFQAATVLQELERHAPEVLIAARAALADGSSLENGQCRQRELAAGAFAEAPDISVDYALMERSDKVAVVPCSIGWSDIGSWQALRELSAADENGNQVRGESVLHDVSNCYIDSPKRLVGAVGVHDLIIVDTPDALLVADAARSQDVKFVAQELKRRGHDAFRLHRTVSRPWGTYTVLEEGRRFKIKRIVVRPKASLSLQMHHHRSEHWIVVSGMALVENGEREFLLNTNESTFIPAGHSHRLSNPGIIDLVMIEVQSGEYLGEDDIVRFNDIYGRAPASDEKK”, the “soluble on expression in E. coli” value is “not soluble”.
The result for “MSLTKPFDVTLTREIIKIESVYAKMIENENILYLRVTNFDKNVVDVASKELKKYPNVKGVILDLRNNPGGLLNQAIGLVNLFVDKGVIVSQKGRIASENQEYKADPKNKISNASLVVLVNGGSASASEIVSGALQDLKRGVIVGENTFGKGSVQQIIPINKTEALRLTIARYYLPSGRTIQAVGVKPDIEVFPGKVNTQEDGFSIKESDLKQHLESELEKIDKNKKEDKQENKDNKNLISQKQINDDAQLKSAIDTIKILNIKQGEGHHHHHH” reads “soluble”; that for “MTVWSKLLSALRGGANEVGEAIVDSQALRILDQEIRDADVELRKSREALASIMARHRLAQERVEKGAAQVAEYEQYAIKALEAGNEELAREVAEKIATLENQLEGERAQVAEFAASVAQLRKSVSQAEGNIRQLKQQVDTVKATESVQKAQMAVAQRYGNSKSKLQTAVDSLERIKQRQAERAATMDAAAELASAAAPDDALDAKLRAAGIKASGNSVDGVLARLKEKGKAAAALEHHHHHH”, “not soluble”; that for “MNAATLVDTHAVDTALQEAFEAAPEGFALFDAEDRCVIWNARYGELWSKWGVTLAVGATFESLLLAGLAAGRFPEANGDRAAWLAHQLGRRKLDRIEEIREEFGEYLRFESRRTPAGGLITTCANLTNLRRREAQALAARSFLDTIVENTPAMLFVKDGDTGAFLLVNRAAENQLGVPRAELLGKSDYDFFPKEQADAFAADDRRVIASGKLVTIDEEPLDTPHNGRRWLQTRKIAIPGEDGRRHLLVICEDITERKAGAAALAEALQKAEAGSVAKSEFLANMSHEIRTPLNGVIGMAEVLSRTALDDAQREMMEVILNSGRALNLLLSDILDLSKIEAGGLELSRDPLDLREAITAAVAVFKAVAESKGLVFRLTFADDFHDHVLGDALRVRQIVANLTSNAVKFTTAGSVIIEARTLVAEDGRIDLTVSVQDTGEGFDEDSADRLFERFQQADGSVTRKVGGTGLGLPIARRLARLMDGEISCVAHPGEGATFVFEALFLADGQRTPAASADPAGELALDRRLRVLLAEDHPTNQKVIGLMLADAADVTVAEDGQAAVEAFEKHAYDVVLMDTQMPVMDGLAAIAEIRRREREAQARRTPIISLTANAMPHQVRACLEAGADLHLAKPVSIQGLFATLGAALETRPGGEGLEHHHHHH”, “not soluble”.
Regarding “MAHHHHHHMGKPGKKAGKGLLAPTNPNRRTDPNKTSLRDQRTIKRLKMYKSKIKRDEKGNIIKGSVLKASDRIEQQMARIAPDRRWFGNTRTIGQEALQKFREEMGTKYKDPYSVIIKQSKLPLSLLEEPKNTDGSIRKEMEWDKTFGDKANRKRVRLNAVDMSTLATEANVKGDYYDCNKKEKDRDLMKGVHKDRDDKTRNGILMTKGQSNRIWCELYKVIDSSDVVLYVVDARDPMGTRSAFLEDFMRREKKYKHFVLVLNKCDLVPLWATARWLQILSKDYPTIAFHASVNHPFGKGNVISLLRQFARLHNVTHRGSKRTKTPISVGVIGYPNVGKSSLINTLRRKSVCKVAPIPGETKVWQYVALTRSIFLIDCPGVVYDRESNNDIQAVLKGVVRVERLGNADKTDVVDTVLKIVKQRDIVATYGVREWRDVVDFLEKLAKLRGKLVAGGEPDVEAAARMLLYDWQRGRLPWFNAPPFESNKHHRDAMEQPQEKHMKLIEHYSTFNVVDDTINRGDEKQDEGGDGDEETANNAADEDQLDSGSEAEKDEEAVKPLKPSKTDRLSATKADTQLATVATYMREQEEKQRKAQRQQKRKAARKGQEDVEAFSADADRESDDALWAQFLAAAKV”, the “soluble on expression in E. coli” value was “soluble”.
The entry for “MLRHHSCALLMLILVFVEVFATQSPTFDRQDRDYRPLQFGKRDGYRPLQFGKRDYRPLQFGKRSSGSSGPVVLEPIWEWQ” is “soluble”; for “MSKNTGSVAPKERVNIKYVPATSDEQAEVELPHKMLVLGDFGLDDSRALEDRQVMRIDKHTFNSVLNDANVSLDVTVPSRLGTAPDTELAVHLQFRSINDFGPDRIARQVPELNKLLALREALVALKGPLGNVPAFRKQLQHLLNNEQARKQLAQELDLVLEAPEKD” it is “not soluble”.
“MSLEHPLQRFFHSMRAKRPFDWVRFQRRDLLLIDHPLCQAVFSRQGAQLLHFQPQGERPLLWCAGEWPALSSAPVRGGIPVCWPWFGSHPNGSEWPQQGWARQREWRLLDAYADESKVVVSWQLDLEDWHVRLDARLGQRLELELCSYHEEDDDCLFSFALQPYWRVGALSRVVVHGMELESARGQRGASRIPGTWIPRGAVKQVLYHPGSLVLEDGGWNRRLRIDKNVSAGSVIWHPGSRPVEQVEPGEAERFLCIGAAGYRPGGLILAPGERMRLSLAAGLQEGHHHHHH”: the “soluble on expression in E. coli” value is “soluble”.
Turning to “MATPVPLVFNAPKRGMPPTHFADLNDEARIEALKELGLPKFRLNQIARHYYGRLEADPLTMTDLPEGARQEVKDALFPTLMSPLRVVETDDDTTQKTLWKLHDGTLLESVLMRYSDRSTLCISSQAGCGMACPFCATGQGGLDRNLSIGEIVDQVRNAAATMQSEGGRLSNIVFMGMGEPLANYKRVVSAVRQITQPSPAGFGISQRSVTVSTVGLAPAIRKLADEEMSVTLAVSLHTPDDELRDTLVPVNNRWPVAEVLDAARYYADKSGRRVSIEYALIRDVNDQDWRADMLGEKLHKALGSRVHVNLIPLNPTPGSKWDAAPKARQDEFVRRVIAKGVPCTVRDTKGQEIAAACGQLAAEESA”, the “soluble on expression in E. coli” value is recorded as “not soluble”.
